The target in assay [1] is T1, rhKeap1^R415A+Y525A+ (residue 321-609 aa) (human, UniProt Q14145 321-609, R415A | Y525A, biotinylated (site not stated)). The experiment in a line: BLI. (In general: BLI is a label-free optical method that tracks binding on a fibre tip over time.)
Assay [2] addresses T1, rhKeap1^R415A+Y525A+ (residue 321-609 …). As to the kind of experiment: BLI. This is another data set of the same source.

T1 sequence (Q14145 321-609 R415A/Y525A): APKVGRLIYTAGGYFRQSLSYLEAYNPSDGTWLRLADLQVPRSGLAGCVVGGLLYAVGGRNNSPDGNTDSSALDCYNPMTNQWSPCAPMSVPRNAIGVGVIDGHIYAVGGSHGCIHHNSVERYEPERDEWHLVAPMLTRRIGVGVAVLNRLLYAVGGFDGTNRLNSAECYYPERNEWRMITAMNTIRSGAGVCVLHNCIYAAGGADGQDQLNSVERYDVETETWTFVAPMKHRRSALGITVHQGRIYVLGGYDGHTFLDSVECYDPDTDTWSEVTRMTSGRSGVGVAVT

B1: human Nrf2 protein (natural protein)
chain: MMDLELPPPGLPSQQDMDLIDILWRQDIDLGVSREVFDFSQRRKEYELEKQKKLEKERQEQLQKEQEKAFFAQLQLDEETGEFLPIQPAQHIQSETSGSANYSQVAHIPKSDALYFDDCMQLLAQTFPFVDDNEVSSATFQSLVPDIPGHIESPVFIATNQAQSPETSVAQVAPVDLDGMQQDIEQVWEELLSIPELQCLNIENDKLVETTMVPSPEAKLTEVDNYHFYSSIPSMEKEVGNCSPHFLNAFEDSFSSILSTEDPNQLTVNSLNSDATVNTDFGDEFYSAFIAEPSISNSMPSPATLSHSLSELLNGPIDVSDLSLCKAFNQNHPESTAEFNDSDSGISLNTSPSVASPEHSVESSSYGDTLLGLSDSEVEELDSAPGSVKQNGPKTPVHSSGDMVQPLSPSQGQSTHVHDAQCENTPEKELPVSPGHRKTPFTKDKHSSRLEAHLTRDELRAKALHIPFPVEKIINLPVVDFNEMMSKEQFNEAQLALIRDIRRRGKNKVAAQNCRKRKLENIVELEQDLDHLKDEKEKLLKEKGENDKSLHLLKKQLSTLYLEVFSMLRDEDGKPYSPSEYSLQQTRDGNVFLVPKSKKPDVKKN
B1 came in with a koff in assay [1] of 0.00262 s⁻¹. For the same molecule, binding in assay [2] was put at a Kd of 107 nM.

One may read the koff as the first-order rate constant of dissociation. A high value points to fast dissociation. A word on the Kd: it is the equilibrium constant for the complex coming apart.

For the origin of these results see article PMC7972864 (2021).
